Several values for one entry are separate records, joined by “and”; a condition that tells them apart may be missing. Equal entries are not always repeated.
B1: Lysozyme C, P61626 (parent)
chain: MKALIVLGLVLLSVTVQGKVFERCELARTLKRLGMDGYRGISLANWMCLAKWESGYNTRATNYNAGDRSTDYGIFQINSRYWCNDGKTPGAVNACHLSCSALLQDNIADAVACAKRVVRDPQGIRAWVAWRNRCQNRDVRQYVQGCGV

Variants of: B1
Conditions: Homo sapiens; pH 2.62; Thermal; DSC; glycine 0.05 M; reversible: yes; structure 1LZ1; whole UniProt chain shown

Variant	Tm [°C]	unfolding enthalpy (calorimetric) [kJ/mol]	unfolding enthalpy (van 't Hoff) [kJ/mol]
MKALIVLGLVLLSVTVQGKVFERCELARTLKRLGMDGYRGISLANWMCLAKWESGYNTRATNYNAGDRSTDYGIFQINSRYWCNDGKTPGAVNACHLSCSALLQDNIADAVACAKRVFRDPQGIRAWVAWRNRCQNRDVRQYVQGCGV [V118F]	56.8	331	356

Same assay, conditions: Homo sapiens; pH 2.7; 64.9 °C; Thermal; DSC; glycine 0.05 M; reversible: yes; structure 1LZ1; whole UniProt chain shown

Variant	ddG of mutation (higher = less stable) [kJ/mol]
MKALIVLGLVLLSVTVQGKVFERCELARTLKRLGMDGYRGISLANWMCLAKWESGYNTRATNYNAGDRSTDYGIFQINSRYWCNDGKTPGAVNACHLSCSALLQDNIADAVACAKRVFRDPQGIRAWVAWRNRCQNRDVRQYVQGCGV [V118F]	6.9
MKALIVLGLVLLSVTVQGKVFERCELARTLKRLGMDGYRGISLANWMCLAKWESGYNTRATNYNAGDRSTDYGIFQINSRYWCNDGKTPGASNACHLSCSALLQDNIADAVACAKRVVRDPQGIRAWVAWRNRCQNRDVRQYVQGCGV [V92S]	1.59
MKALIVLGLVLLSVTVQGKVFERCELARTLKRLGMDGYRGISLANWMCLAKWESGYNTRATNYNAGDRSTDYGIFQINSRYWCNDGKTPGAVNACGLSCSALLQDNIADAVACAKRVVRDPQGIRAWVAWRNRCQNRDVRQYVQGCGV [H96G]	0.502
MKALIVLGLVLLSVTVQGKVFERCELARTLKRLGMDGYRGISLANWMCLAKWESGYNTRATNYNAGDGSTDYGIFQINSRYWCNDGKTPGAVNACHLSCSALLQDNIADAVACAKRVVRDPQGIRAWVAWRNRCQNRDVRQYVQGCGV [R68G]	-1.09

Same assay, conditions: Homo sapiens; pH 2.7; Thermal; DSC; glycine 0.05 M; reversible: yes; structure 1LZ1; whole UniProt chain shown

Variant	change of melting temperature, mutant - wild type (higher = more stable) [°C]	heat capacity change of unfolding [kcal/mol/K]	unfolding enthalpy (calorimetric) [kJ/mol]	Tm
MKALIVLGLVLLSVTVQGKVFERCELARTLKRLGMDGYRGISLANWMCLAKWESGYNTRATNYNAGDRSTDYGIFQINSRYWCNDGKTPGAVNACHLSCSALLQDNIADAVACAKRVFRDPQGIRAWVAWRNRCQNRDVRQYVQGCGV [V118F]	-6.5	0.93	365	
MKALIVLGLVLLSVTVQGKVFERCELARTLKRLGMDGYRGISLANWMCLAKWESGYNTRATNYNAGDRSTDYGIFQINSRYWCNDGKTPGASNACHLSCSALLQDNIADAVACAKRVVRDPQGIRAWVAWRNRCQNRDVRQYVQGCGV [V92S]	-1.2	1.22	452	63.7 °C and 64.9 °C
MKALIVLGLVLLSVTVQGKVFERCELARTLKRLGMDGYRGISLANWMCLAKWESGYNTRATNYNAGDRSTDYGIFQINSRYWCNDGKTPGAVNACGLSCSALLQDNIADAVACAKRVVRDPQGIRAWVAWRNRCQNRDVRQYVQGCGV [H96G]	-0.5	1.58	455	64.4 °C and 64.9 °C
MKALIVLGLVLLSVTVQGKVFERCELARTLKRLGMDGYRGISLANWMCLAKWESGYNTRATNYNAGDGSTDYGIFQINSRYWCNDGKTPGAVNACHLSCSALLQDNIADAVACAKRVVRDPQGIRAWVAWRNRCQNRDVRQYVQGCGV [R68G]	0.9	1.46	420	65.8 °C and 64.9 °C

Same assay, conditions: Homo sapiens; pH 2.83; Thermal; DSC; glycine 0.05 M; reversible: yes; structure 1LZ1; whole UniProt chain shown

Variant	Tm [°C]	unfolding enthalpy (calorimetric) [kJ/mol]	unfolding enthalpy (van 't Hoff) [kJ/mol]
MKALIVLGLVLLSVTVQGKVFERCELARTLKRLGMDGYRGISLANWMCLAKWESGYNTRATNYNAGDRSTDYGIFQINSRYWCNDGKTPGAVNACHLSCSALLQDNIADAVACAKRVFRDPQGIRAWVAWRNRCQNRDVRQYVQGCGV [V118F]	61	354	385
MKALIVLGLVLLSVTVQGKVFERCELARTLKRLGMDGYRGISLANWMCLAKWESGYNTRATNYNAGDRSTDYGIFQINSRYWCNDGKTPGASNACHLSCSALLQDNIADAVACAKRVVRDPQGIRAWVAWRNRCQNRDVRQYVQGCGV [V92S]	66	456	481

Same assay, conditions: Homo sapiens; pH 3.26; Thermal; DSC; glycine 0.05 M; reversible: yes; structure 1LZ1; whole UniProt chain shown

Variant	Tm [°C]	unfolding enthalpy (calorimetric) [kJ/mol]	unfolding enthalpy (van 't Hoff) [kJ/mol]
MKALIVLGLVLLSVTVQGKVFERCELARTLKRLGMDGYRGISLANWMCLAKWESGYNTRATNYNAGDRSTDYGIFQINSRYWCNDGKTPGAVNACHLSCSALLQDNIADAVACAKRVFRDPQGIRAWVAWRNRCQNRDVRQYVQGCGV [V118F]	67.6	374	399

Same assay, conditions: Homo sapiens; pH 2.61; Thermal; DSC; glycine 0.05 M; reversible: yes; structure 1LZ1; whole UniProt chain shown

Variant	Tm [°C]	unfolding enthalpy (calorimetric) [kJ/mol]	unfolding enthalpy (van 't Hoff) [kJ/mol]
MKALIVLGLVLLSVTVQGKVFERCELARTLKRLGMDGYRGISLANWMCLAKWESGYNTRATNYNAGDRSTDYGIFQINSRYWCNDGKTPGASNACHLSCSALLQDNIADAVACAKRVVRDPQGIRAWVAWRNRCQNRDVRQYVQGCGV [V92S]	62.1	439	460

Same assay, conditions: Homo sapiens; pH 3.28; Thermal; DSC; glycine 0.05 M; reversible: yes; structure 1LZ1; whole UniProt chain shown

Variant	Tm [°C]	unfolding enthalpy (calorimetric) [kJ/mol]	unfolding enthalpy (van 't Hoff) [kJ/mol]
MKALIVLGLVLLSVTVQGKVFERCELARTLKRLGMDGYRGISLANWMCLAKWESGYNTRATNYNAGDRSTDYGIFQINSRYWCNDGKTPGASNACHLSCSALLQDNIADAVACAKRVVRDPQGIRAWVAWRNRCQNRDVRQYVQGCGV [V92S]	72.2	490	510

Same assay, conditions: Homo sapiens; pH 2.53; Thermal; DSC; glycine 0.05 M; reversible: yes; structure 1LZ1; whole UniProt chain shown

Variant	Tm [°C]	unfolding enthalpy (calorimetric) [kJ/mol]	unfolding enthalpy (van 't Hoff) [kJ/mol]
MKALIVLGLVLLSVTVQGKVFERCELARTLKRLGMDGYRGISLANWMCLAKWESGYNTRATNYNAGDRSTDYGIFQINSRYWCNDGKTPGAVNACGLSCSALLQDNIADAVACAKRVVRDPQGIRAWVAWRNRCQNRDVRQYVQGCGV [H96G]	61.5	431	452

Same assay, conditions: Homo sapiens; pH 2.75; Thermal; DSC; glycine 0.05 M; reversible: yes; structure 1LZ1; whole UniProt chain shown

Variant	Tm [°C]	unfolding enthalpy (calorimetric) [kJ/mol]	unfolding enthalpy (van 't Hoff) [kJ/mol]
MKALIVLGLVLLSVTVQGKVFERCELARTLKRLGMDGYRGISLANWMCLAKWESGYNTRATNYNAGDRSTDYGIFQINSRYWCNDGKTPGAVNACGLSCSALLQDNIADAVACAKRVVRDPQGIRAWVAWRNRCQNRDVRQYVQGCGV [H96G]	65.2	460	469

Same assay, conditions: Homo sapiens; pH 3.1; Thermal; DSC; glycine 0.05 M; reversible: yes; structure 1LZ1; whole UniProt chain shown

Variant	Tm [°C]	unfolding enthalpy (calorimetric) [kJ/mol]	unfolding enthalpy (van 't Hoff) [kJ/mol]
MKALIVLGLVLLSVTVQGKVFERCELARTLKRLGMDGYRGISLANWMCLAKWESGYNTRATNYNAGDRSTDYGIFQINSRYWCNDGKTPGAVNACGLSCSALLQDNIADAVACAKRVVRDPQGIRAWVAWRNRCQNRDVRQYVQGCGV [H96G]	71	494	502

Same assay, conditions: Homo sapiens; pH 2.58; Thermal; DSC; glycine 0.05 M; reversible: yes; structure 1LZ1; whole UniProt chain shown

Variant	Tm [°C]	unfolding enthalpy (calorimetric) [kJ/mol]	unfolding enthalpy (van 't Hoff) [kJ/mol]
MKALIVLGLVLLSVTVQGKVFERCELARTLKRLGMDGYRGISLANWMCLAKWESGYNTRATNYNAGDGSTDYGIFQINSRYWCNDGKTPGAVNACHLSCSALLQDNIADAVACAKRVVRDPQGIRAWVAWRNRCQNRDVRQYVQGCGV [R68G]	63.7	418	464

Same assay, conditions: Homo sapiens; pH 2.78; Thermal; DSC; glycine 0.05 M; reversible: yes; structure 1LZ1; whole UniProt chain shown

Variant	Tm [°C]	unfolding enthalpy (calorimetric) [kJ/mol]	unfolding enthalpy (van 't Hoff) [kJ/mol]
MKALIVLGLVLLSVTVQGKVFERCELARTLKRLGMDGYRGISLANWMCLAKWESGYNTRATNYNAGDGSTDYGIFQINSRYWCNDGKTPGAVNACHLSCSALLQDNIADAVACAKRVVRDPQGIRAWVAWRNRCQNRDVRQYVQGCGV [R68G]	67.3	427	477

Same assay, conditions: Homo sapiens; pH 3.11; Thermal; DSC; glycine 0.05 M; reversible: yes; structure 1LZ1; whole UniProt chain shown

Variant	Tm [°C]	unfolding enthalpy (calorimetric) [kJ/mol]	unfolding enthalpy (van 't Hoff) [kJ/mol]
MKALIVLGLVLLSVTVQGKVFERCELARTLKRLGMDGYRGISLANWMCLAKWESGYNTRATNYNAGDGSTDYGIFQINSRYWCNDGKTPGAVNACHLSCSALLQDNIADAVACAKRVVRDPQGIRAWVAWRNRCQNRDVRQYVQGCGV [R68G]	73	473	515

Reference: FireProtDB (doi:10.1093/protein/12.8.663)
